Measured values from patent publication US20080058263A1 (published 2008).
Changes are numbered by the printed parent chain.

T1: VEGFR-3-Fc (UniProt P35916 25-328)
T1 construct: domain: first three Ig domains; conditioned supernatant of 293T cells; also called VEGFR-3-Fc fusion protein; not shown: Fc fragment of the pIg vector
T1 sequence (looked up): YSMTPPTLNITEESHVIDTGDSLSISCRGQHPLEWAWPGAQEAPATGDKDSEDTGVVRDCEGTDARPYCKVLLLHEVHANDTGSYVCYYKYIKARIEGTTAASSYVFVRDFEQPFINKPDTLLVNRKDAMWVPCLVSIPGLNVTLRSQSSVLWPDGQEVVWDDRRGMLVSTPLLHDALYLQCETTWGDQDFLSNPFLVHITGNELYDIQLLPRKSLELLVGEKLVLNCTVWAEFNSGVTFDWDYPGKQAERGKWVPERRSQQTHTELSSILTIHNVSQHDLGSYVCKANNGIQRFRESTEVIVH

B1: 62-1 (ligand)
chain: GQNHHEVVKFMDVYQRSYCHPREVCIDVGKEFGVATNTFFKPPCVSVYRCGGCCNDEGLECVPTEESNITMQIMRIKPHQGQHIGEMSFLQHNKCECRPKKD
B2: 32-11 (ligand)
chain: GQNHHEVVKSIDNEWRKTQCMPIETLVDIFQEFGVATNTFFKPPCVSVYRCGGCCNSEGLQCVPTEESNITMQIMRITVPLSQGPKPVTISFLQHNKCECRPKKD
B3: 52-11 (ligand)
chain: B2 chain with G1A, Q2H, N3Y, H4N, H5T, V7I, V8L
B4: 52-9 (ligand)
chain: B2 chain with G1A, Q2H, N3Y, H4N, H5T, V7I, V8L, S57D, Q61E
B5: 32-15 (ligand)
chain: B2 chain with L93A, Q94N, N96T, K97S, E99R, R101M, P102S, K104L
B6: 72-15 (ligand)
chain: GQNHHEVVKSIDNEWRKTQCMPREVCIDVGKEFGVATNTFFKPPCVSVYRCGGCCNSEGLQCVPTEESNITMQIMRITVPLSQGPKPVTISFANHTSCRCMSKLD
B7: 34-9 (ligand)
chain: B2 chain with P44S, S47P, V48L, Y49M, S57D, Q61E
B8: 72-13 (ligand)
chain: B6 chain with S57D, Q61E
B9: 71-9 (ligand)
chain: GQNHHEVVKSIDNEWRKTQCMPREVCIDVGKEYPDEIEYIFKPSCVPLMRCGGCCNDEGLECVPTEESNITMQIMRITVPLSQGPKPVTISFLQHNKCECRPKKD
B10: 74-13 (ligand)
chain: B6 chain with P44S, S47P, V48L, Y49M, S57D, Q61E
B11: 53-1 (ligand)
chain: AHYNTEILKSIDNEWRKTQCMPIETLVDIFQEYPDEIEYIFKPPCVSVYRCGGCCNDEGLECVPTEESNITMQIMRIKPHQGQHIGEMSFLQHNKCECRPKKD
B12: 53-7 (ligand)
chain: B11 chain with D57S, E61Q, L91A, Q92N, N94T, K95S, E97R, R99M, P100S, K102L
B13: 52-15 (ligand)
chain: AHYNTEILKSIDNEWRKTQCMPIETLVDIFQEFGVATNTFFKPPCVSVYRCGGCCNSEGLQCVPTEESNITMQIMRITVPLSQGPKPVTISFANHTSCRCMSKLD
notes: clone entry
B14: 53-3 (ligand)
chain: AHYNTEILKSIDNEWRKTQCMPIETLVDIFQEYPDEIEYIFKPPCVSVYRCGGCCNSEGLQCVPTEESNITMQIMRIKPHQGQHIGEMSFLQHNKCECRPKKDLV
notes: clone entry
B15: 63-8 (ligand)
chain: GQNHHEVVKFMDVYQRSYCHPREVCIDVGKEYPDEIEYIFKPPCVSVYRCGGCCNSEGLQCMNTSTSYLSKTLFEIKPHQGQHIGEMSFANHTSCRCMSKLD
B16: 13-8 (ligand)
chain: B15 chain with R22I, V24T, C25L, I26V, V28I, G29F, K30Q
B17: 43-8 (ligand)
chain: B15 chain with G1A, Q2H, N3Y, H4N, H5T, V7I, V8L
B18: 43-6 (ligand)
chain: B15 chain with G1A, Q2H, N3Y, H4N, H5T, V7I, V8L, S56D, Q60E
B19: 13-6 (ligand)
chain: B15 chain with R22I, V24T, C25L, I26V, V28I, G29F, K30Q, S56D, Q60E
B20: 61-4 (ligand)
chain: GQNHHEVVKFMDVYQRSYCHPREVCIDVGKEYPDEIEYIFKPSCVPLMRCGGCCNSEGLQCMNTSTSYLSKTLFEIKPHQGQHIGEMSFLQHNKCECRPKKD
B21: 61-8 (ligand)
chain: B15 chain with P43S, S46P, V47L, Y48M
B22: 61-6 (ligand)
chain: B15 chain with P43S, S46P, V47L, Y48M, S56D, Q60E
B23: 32-14 (ligand)
chain: GQNHHEVVKSIDNEWRKTQCMPIETLVDIFQEFGVATNTFFKPPCVSVYRCGGCCNDEGLECMNTSTSYLSKTLFEITVPLSQGPKPVTISFANHTSCRCMSKLD
notes: clone entry
B24: 32-16 (ligand)
chain: B23 chain with D57S, E61Q

What follows are binders tested against T2, VEGFR-2-Fc (UniProt P35968 20-322) (assay: receptor-Fc IP).
T2 construct: domain: first 3 Ig domains; conditioned supernatant of 293T cells; also called VEGFR-2-Fc fusion protein; not shown: Fc fragment of the pIg vector
In short: (§1)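 fusion protein at 400 ng/ml in an IP mix (PBS, 1.5% BSA, 0.06% Tween 20, 3 μg/ml heparin) was combined with sample supernatant at a 1:2 ratio. Bound ligand captured by immunoprecipitation with pentahistidine antibody.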

T2 sequence (P35968 20-322): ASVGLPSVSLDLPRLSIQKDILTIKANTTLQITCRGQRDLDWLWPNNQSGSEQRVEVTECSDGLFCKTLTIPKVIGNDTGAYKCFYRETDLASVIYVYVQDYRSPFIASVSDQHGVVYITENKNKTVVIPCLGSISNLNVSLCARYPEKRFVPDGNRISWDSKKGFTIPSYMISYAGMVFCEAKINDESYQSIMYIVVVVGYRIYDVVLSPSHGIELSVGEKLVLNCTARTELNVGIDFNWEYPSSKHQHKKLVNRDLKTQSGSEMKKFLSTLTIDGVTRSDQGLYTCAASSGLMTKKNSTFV

binding result | Binder
no binding | B1
no binding | B2
no binding | B3
no binding | B4
no binding | B5
no binding | B6
no binding | B7
no binding | B8
no binding | B9
no binding | B10
binds | B11
binds | B12
no binding | B13
binds | B14
no binding | B15
no binding | B16
no binding | B17
no binding | B18
no binding | B19
no binding | B20
no binding | B21
no binding | B22
no binding | B23
no binding | B24

These binders were tested against T3, VEGFR-1-Fc (UniProt P17948 27-338) (assay: receptor-Fc IP).
T3 construct: domain: first three Ig domains; expressed in Drosophila S2 cells, purified on Protein A sepharose; also called VEGFR-1-Fc fusion protein; not shown: Fc fragment from the Signal-pIgPlus vector
In short: as §1

T3 sequence (P17948 27-338): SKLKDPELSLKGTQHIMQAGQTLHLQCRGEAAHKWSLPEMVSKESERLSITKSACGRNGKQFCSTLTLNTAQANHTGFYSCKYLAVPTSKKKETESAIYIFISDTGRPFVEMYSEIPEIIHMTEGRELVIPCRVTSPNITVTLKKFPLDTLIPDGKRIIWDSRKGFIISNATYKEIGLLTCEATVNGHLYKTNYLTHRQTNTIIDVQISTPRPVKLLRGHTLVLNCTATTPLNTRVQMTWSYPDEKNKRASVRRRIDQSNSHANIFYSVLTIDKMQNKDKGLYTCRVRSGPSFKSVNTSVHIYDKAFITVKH

binding result | Binder
binds | B1
no binding | B2
no binding | B3
no binding | B4
no binding | B5
no binding | B6
no binding | B7
no binding | B8
no binding | B9
no binding | B10
no binding | B11
no binding | B12
no binding | B13
binds | B14
no binding | B15
no binding | B16
no binding | B17
no binding | B18
no binding | B19
no binding | B20
no binding | B21
no binding | B22
no binding | B23
no binding | B24

What follows are binders tested against T1, VEGFR-3-Fc (assay: receptor-Fc IP).
In short: as §1

binding result | Binder
no binding | B1
binds | B2
binds | B3
binds | B4
binds | B5
no binding | B6
no binding | B7
no binding | B8
no binding | B9
no binding | B10
no binding | B11
no binding | B12
binds | B13
binds | B14
no binding | B15
no binding | B16
no binding | B17
no binding | B18
no binding | B19
no binding | B20
no binding | B21
no binding | B22
binds | B23
binds | B24
